Laboratory results published in patent US20030087395A1, “Cardiotrophin-like cytokine” (Human Genome Sciences, Inc., priority 1997, published 2003).

How the values were obtained:
Format in all cases: cell-based
GAS element in M1 cells [1] = experiment: GAS/SEAP reporter assay in M1 cells; settings: GAS/SEAP construct in M1 cells; supernatants from 293T cells transfected with CLC expression construct
From the text: (§1) The sequence of the 5' primer is: [NT] ID NO:16). […] The sequence of the 3' primer is: [NT] ID NO:17). […] Separate the Optiplates to avoid uneven heating. […] An increase in chemiluminescence indicates reporter activity.

M1 cells [2] = experiment: Protein tyrosine phosphorylation after anti-gp130 immunoprecipitation; settings: M1 cells treated with CLC or LIF supernatant; band of apparent molecular mass 32 kDa
Method: Because of the wide range of known factors capable of stimulating tyrosine kinase activity, identifying whether CLC or a molecule induced by CLC is capable of activating tyrosine kinase signal transduction pathways is of interest. Therefore, the following protocol is designed to identify such molecules capable of activating the tyrosine kinase signal transduction pathways.
Seed NIH-3T3 cells in 15 cm^2 cell culture plates in DMEM supplemented with Pen/Strep, 10% FBS, 25 mM Hepes. […] At the point the experiment begins, the cells should be 80-90% confluent. Collect M1 cells in 50 ml tube and centrifuge 1000 rpm for 5 min. Resuspend the cell pellet in “quiescing medium” which is RPMI supplemented with Pen/Strep, glutamine. (It is important to note that quiescing medium contains neither serum nor growth factors.) Centrifuge again at 1000 rpm for 5 min to wash the cells. Again, resuspend the cells in quiescing medium. Incubate the M1 cells in quiescing medium for 16 hours at 37° C.
Pre-warm quiescing medium (for Ml cells) and a metal tube rack to 37° C. Pre-cool quiescing media (for NIH-3T3 cells) and sterile Eppendorf tubes containing 0.5 ml of sample. […] Resuspend M1 cells to 5.0×10^7 cells per 0.5 ml quiescing media. Place all tubes on per warmed metal rack and leave at 37° C. until ready to begin. Add samples to these pre-aliquoted tubes. […]

[3] = system: GAS element in TF-1 cells; experiment: GAS/SEAP reporter assay in TF-1 cells; settings: GAS/SEAP construct in TF-1 cells; supernatants from 293T cells transfected with CLC expression construct
From the text: as §1

M1 cells [4] = experiment: M1 cell proliferation by BrdU incorporation; settings: dose of 100 μL, 72 hours
Method: The effect of CLC on cellular proliferation can be assayed in M1 cells by BrdU incorporation. 1×10^4 cells/100 μL are dispensed into 96-well cell culture plates and labeled with 10 μL BrdU. CLC is added to the cells at several doses (0, 5, 25, and 100 μL) and LIF is added to the cells as a positive control at a dose of 100 μL. The cells are allowed to grow for 72 hours at 37° C. The amount of BrdU incorporation is determined by the Cell Proliferation ELISA BrdU colorimetric kit (Boehringer Mannheim).

[5] = system: SRE element in TF-1 cells; experiment: SRE/SEAP reporter assay in TF-1 cells; settings: supernatants from 293T cells transfected with CLC expression vector, SEAP reporter
From the text: (§2) Therefore, activation of the Jaks-STATs pathway, reflected by the binding of the GAS or the ISRE element, can be used to indicate proteins involved in the proliferation and differentiation of cells. For example, growth factors and cytokines are known to activate the Jaks-STATs pathway (see Table below). Thus, by using GAS elements linked to reporter molecules, activators of the Jaks-STATs pathway can be identified. Serum response elements (SREs) play a similar role in signal transduction although the DNA sequence which mediates a serum response is unique from the GAS or ISRE sequences.
(§3) Other constructs can be made using the above description and replacing GAS with a different promoter sequence. For example, construction of reporter molecules containing NF-kB and EGR promoter sequences are described in Examples 6 and 8. However, many other promoters can be substituted using the protocols described in these Examples. For instance, SRE, IL-2, NFAT, or Osteocalcin promoters can be substituted, alone or in combination (e.g., GAS/NF-κB/EGR, GAS/NF-κB, Il-2/NFAT, or NF-κB/GAS). Similarly, other cell lines can be used to test reporter construct activity, such as HeLa (epithelial), HUVEC (endothelial), Reh (B-cell), Saos-2 (osteoblast), HUVAC (aortic) or cardiomyocyte.
(§4) Separate the Optiplates to avoid uneven heating.
(§5) An increase in chemiluminescence indicates reporter activity.

Primary cardiomyocytes = experiment: Cardiac myocyte hypertrophy, cell counts in culture
Method: (§6) Primary cardiomyocytes, primary neuronal cultures, or other cells are plated at a low density and cultured using standard culturing techniques. […] Cultures are evaluated at a point between 48 and 72 hours post-treatment by counting the number of cells in four non-overlapping fields in three independent cultures and averaging the results.

[6] = system: primary neuronal cultures (sympathetic neuron counts); experiment: Neuron counts in primary neuronal cultures
Method: as §6

GAS element in M1 cells [7] = experiment: SEAP reporter assay, SRE experiment repeated in M1 cells; settings: M1 cells replacing TF-1 cells, supernatants from 293T cells transfected with CLC expression vector
From the text: as §2, §3, §4, §5

[8] = counted 48 to 72 hours post-treatment, four fields in three independent cultures, averaged

B1: CLC: human polypeptide named cardiotrophin-like cytokine, IL-6 cytokine family member; tested as supernatant of transfected 293T cells (protein)
chain: MDLRAGDSWGMLACLCTVLWHLPAVPALNRTGDPGPGPSIQKTYDLTRYLEHQLRSLAGTYLNYLGPPFNEPDFNPPRLGAETLPRATVDLEVWRSLNDKLRLTQNYEAYSHLLCYLRGLNRQAATAELRRSLAHFCTSLQGLLGSIAGVMAALGYPLPQPLPGTEPTWTPGPAHSDFLQKMDDFWLLKELQTWLWRSAKDFNRLKKKMQPPAAAVTLHLGAHGF
modifications: homo sapiens; signal (-27)..(-1)
notes: human polypeptide named cardiotrophin-like cytokine, IL-6 cytokine family member; tested as supernatant of transfected 293T cells
induction of the GAS element (GAS element in M1 cells [1]): 4.5 fold
band of tyrosine-phosphorylated protein in cell extracts (M1 cells [2]): produced a band of phosphorylated protein
activation of the GAS element [3]: 4.6 fold
inhibition of M1 cell proliferation with respect to the negative control (M1 cells [4]): 3.1 fold
activation of the SRE element over the negative control level [5]: 2.6 fold
No. Active Myocytes (Primary cardiomyocytes; [8]): 50
reduction of cardiomyocyte hypertrophic activity of mock-transfected 293T supernatant (Primary cardiomyocytes; supernatants from CLC-transfected 293T cells, 48 to 72 hours post-treatment): 2 fold
No. Neurons [6, 8]: 86
change of sympathetic neuron counts ([6]; samples treated with CLC-transfected supernatants): clear increase
induction of the GAS element (SRE experiment repeated) (GAS element in M1 cells [7]): 3.2 fold
